Data as given in patent US20230174609A1, “EXTENDED TIME ACTION ACYLATED INSULIN COMPOUNDS” (Eli Lilly and Company, priority 2020, published 2023).

Key:
[1] = target: human insulin receptor subtype A (hIR-A) (human) (UniProt P06213); test: cell-based or functional assay
[2] = target: human insulin receptor subtype B (hIR-B) containing a C-terminal C9 tag (human) (UniProt P06213); test: cell-based or functional assay
[3] = target: human insulin receptor subtype B (hIR-B) containing a C-terminal C9 tag (human) (UniProt P06213); test: SPA competitive radioligand binding, hIR-B membranes, 0.1% BSA
[4] = target: human insulin receptor subtype B (hIR-B) containing a C-terminal C9 tag (human) (UniProt P06213); test: SPA competitive radioligand binding, hIR-B membranes, 0.1% HSA
[5] = target: human insulin receptor subtype B (hIR-B) containing a C-terminal C9 tag (human) (UniProt P06213); test: SPA competitive radioligand binding, hIR-B membranes, 0.001% NP-40

receptor tyrosine auto-phosphorylation in HEK293 cells, ELISA, EC50, 0.1% BSA [1]	receptor tyrosine auto-phosphorylation in HEK293 cells, ELISA, EC50, 0.1% Casein [1]	receptor tyrosine auto-phosphorylation in HEK293 cells, ELISA, EC50, 0.1% BSA [2]	receptor tyrosine auto-phosphorylation in HEK293 cells, ELISA, EC50, 0.1% Casein [2]	Ki [3]	Ki [4]	Ki [5]	Substance
2550 nM	588 nM	1560 nM	–	–	–	–	Example 1 (A14E, B16H, B25H, desB30 human insulin acylated at Lys B29 with HO2C-(CH2)18-CO-γGlu-γGlu-γGlu-Lys-Gly-) (ligand)
3040 nM	478 nM	1790 nM	–	–	–	–	Example 2 (A14E, B16H, B25H, desB30 human insulin acylated at Lys B29 with HO2C-(CH2)18-CO-γGlu-γGlu-γGlu-Lys-(2-[2-(2-aminoethoxy)ethoxy]acetic acid)-) (ligand)
3180 nM	627 nM	1220 nM	183 nM	–	–	–	Example 3 (A14E, B16H, B25H, desB30 human insulin acylated at Lys B29 with HO2C-(CH2)18-CO-γGlu-γGlu-γGlu-εLys-Gly-) (ligand)
–	–	771 nM	577 nM	67.3 nM	54.3 nM	86.1 nM	insulin-like growth factor 1 (IGF-1) (from UniProt P05019 49-118) (ligand)
